How the values were obtained:
Assay in all cases: cell-based or functional assay
[1] = molecular target: neuraminidase (NA) of H1N1 A/Brisbane/59/2007 (influenza A virus H1N1 A/Brisbane/59/2007)
[2] = molecular target: neuraminidase (NA) of H1N1 A/California/07/2009 (influenza A virus H1N1 A/California/07/2009)
[3] = molecular target: neuraminidase (NA) of H3N2 A/Perth/16/2009 (influenza A virus H3N2 A/Perth/16/2009)
[4] = molecular target: neuraminidase (NA) of H5N1 A/Vietnam/1194/2004 (NIBRG-14) (influenza A virus H5N1 A/Vietnam/1194/2004 (NIBRG-14))

B1: CR12042 (antibody, V domains shown)
VH: EVQLVESGAEVRKPGSSVKVSCTASGDTFSSYTITWVRQAPGQGLEWMGEIIPIFGTANYAQKFQGRVTLTADESTTTAYMDLSSLRSEDTAVYYCARGPDNHSDRYFYYGMDVWGQGTTVTVSS
VL: EIVLTQSPLSLPVTPGEPASISCRSSQSLLHSTGNNYLDWYLQKPGQSPQLLIYLGSNRASGVPDRFSGSGSGTDFTLKISRVEAEDVGVYYCMQALQTPRTFGQGTKVDIK
[1]
  EC50 of neuraminidase inhibition (NA-XTD assay, whole virus): 0.11 µg/mL
[2]
  IC50 of virus neutralization (VNA on MDCK cells): 0.26 µg/mL
[3]
  EC50 of neuraminidase inhibition (NA-XTD assay, whole virus): 5.01 µg/mL
  IC50 of virus neutralization (VNA on MDCK cells; one experiment): > 100 µg/mL
[4]
  IC50 of virus neutralization (VNA on MDCK cells): 5.45 µg/mL

From patent US20180016348A1
